Patent US20200115702A1

Biological target: BAFF-Fc (Sino Biological) (human) (UniProt Q9Y275)
Assay: cell-based or functional assay

Sequence of UniProt Q9Y275 (Q9Y275 134-285): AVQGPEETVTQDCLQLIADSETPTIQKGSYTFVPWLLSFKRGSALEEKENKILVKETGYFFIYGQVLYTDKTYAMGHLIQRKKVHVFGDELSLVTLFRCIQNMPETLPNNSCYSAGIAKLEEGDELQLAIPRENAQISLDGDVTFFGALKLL

“endogenous BAFF receptor, BR3 (from UniProt Q96RJ3 1-78)” was tested, and the IC50, inhibition of BAFF bioactivity in the mouse splenocyte assay was 121 nM.
